Assay results as given in patent US20090035258A1, “METHODS OF TREATING CANCER BY ADMINISTERING HUMAN IL-18 COMBINATIONS” (priority 2007, published 2009).
Where two headings read alike, the source gives them in different places.

Experiments:
NK cells [1] = assay: NK cytotoxicity assay in EL-4 T-cell lymphoma model; conditions: 21 hours post-treatment (FIG. 12)
EL-4 T-cell lymphoma = assay: IL-18 combination with doxorubicin in EL-4 T cell lymphoma, survival; assay type: in vivo, mouse
Protocol: Studies were performed in female C57/BL/6 mice. As a general protocol, C57/BL mice were injected I.P. with 0.2 cc of stock EL-4 cells. EL-4 murine T-lymphoma cells were expanded in RPMI w/10% FCS. All animals were randomized to six or seven mice per study group with food and water ad libitum. EL-4 cells were harvested on day 0, counted and implanted I.P. with 5×10^5 EL-4 lymphoma cells. Animals were randomized to treatment groups of 6/7 animals on Day 3. Doxorubicin was administered IV on Days 3 &10, pos-implantation. mIL-18 (SEQ ID NO:2) was administered S.C. on Days 3-16. The animals were observed daily for toxicity and mortality.
All animals tolerated dosing schedule and levels well by gross observation. On day 16, all dosing was terminated, and median vehicle death occurred on day 17.5. All vehicle mice expired between days 16-18 post-implantation. Increase in lifespan was calculated by study group/vehicle group−1×100%. For mIL-18 (SEQ ID NO:2) combination therapy with doxorubicin in EL-4 T cell lymphoma, the data were analyzed with respect to median survival time and increase in lifespan.
The prolongation of life span in response to combinational therapy with mIL-18 (SEQ ID NO:2) and doxorubicin was assessed in the syngeneic tumor model of female C57BI/6 mice bearing EL-4 T-cell lymphoma. […] As described below, when vehicle animals expired (on day 16) all dosing was terminated. […]

[2] = tested on: murine colon carcinoma, Colo 26; assay: IL-18 and 5-FU combination in syngeneic murine colon cancer model Colo26; assay type: in vivo, mouse; conditions: 5-FU alone or mIL-18 alone
Protocol: This study aimed to evaluate the efficacy of mIL-18 (SEQ ID NO:2) combination therapy with 5-fluorouracil (5-FU), as compared to monotherapy with 5-FU, or mIL-18 (SEQ ID NO:2) alone. Our study was performed in a well established syngeneic subcutaneous model of murine colon carcinoma, Colo 26, in BALB/c mice. The dosing with mIL-18 (SEQ ID NO:2) was performed daily with 10 μg/mouse s.c. on days 10-30 after tumor inoculation. The dosing with 5-FU was performed i.p. twice a week in the ascending dose: 27, 45 and 74 μg/mouse.
The data comparing tumor volumes in different treatment groups were evaluated at a selected representative time-point, and were expressed as mean+/−SD (FIG. 21), and as median+/−range (FIG. 22). The data were first checked for normal distribution (Gaussian approximation), and standard deviation values were compared to make sure that there is an equal variance. […] Therefore, a non-parametric test (Kruskal-Wallis analysis and Dunn's comparison test) was used for the statistical evaluation. […] FIG. 24 (median+/−SD) and FIG. 25 (mean+/−SD) show the effect of IL-18 and 5-FU combination therapy in same Colo26 syngeneic colon tumor model. […]
Survival of mice bearing Colo26 in different treatment groups was plotted in a Kaplan-Meyer survival curve analysis, and evaluated by Logrank test, and is shown in FIG. 26. […]

[3] = cited from earlier work
MOPC-315 plasmacytoma = assay: IL-18 monotherapy in advanced MOPC-315 plasmacytoma model; assay type: in vivo, mouse
Text: Based upon a broad spectrum of immunostimulatory properties, IL-18 has been studied in a variety of preclinical tumor models. […] Further support for IL-18 mediated cellular immunity also comes from immunohistochemistry performed on established MOPC-315 tumors in control and IL-18 treated mice. […] In addition, it seems that an intact Fas/Fas ligand pathway is beneficial to anti-tumor response.

NK cells [4] = tested on: NK cells
[5] = tested on: human Ramos B-cell lymphoma line; assay: IL-18 combination therapy with RITUXAN in murine human B-cell lymphoma model; assay type: in vivo, mouse; conditions: first experiment (FIG. 3); mIL-18 single agent 100 μg/dose
Protocol: The study was performed in outbred female homozygous SCID mice (ICR-Prkdc^scid) that lack both T and B cells.
Mice were injected with human Ramos B-cell lymphoma line that was originally derived from a patient with Burkitt's lymphoma (ATCC catalogue, CRL 1596). The tumor 1:10 homogenate was inoculated into 6-8 week old mice at the dose 0.5 ml per mouse. […] The therapy was initiated when the median tumor volume per group reached 80-150 mm^3 (at day 12 post tumor inoculation). In addition, those mice that grew a tumor with a volume outside of the set limits were excluded from the study.
The number of animals was increased to n=12, in order to have a better window to measure statistical significance. Tumor volume was measured using the viener calipers two to three times a week.

## COc1cccc2c1C(=O)c1c(O)c3c(c(O)c1C2=O)C[C@@](O)(C(=O)CO)C[C@@H]3O[C@H]1C[C@H](N)[C@H](O)[C@H](C)O1 [doxorubicin, reference compound]
NK cells [1]
  NK cytotoxicity: impaired
EL-4 T-cell lymphoma; doxorubicin monotherapy 12 mg/kg IV days 3 & 10
  increase in lifespan: minimal increase in lifespan

## O=c1[nH]cc(F)c(=O)[nH]1 [5-FU, 5-fluorouracil, reference compound]
[2]
  therapeutic effect of monotherapy compared to control: did not show a therapeutic effect better than a control

## human IL-18: recombinant mature form of human interleukin-18 (SEQ ID NO: 1), expressed in Escherichia coli
[3]; 2000 μg/kg administered weekly for up to 24 weeks
  toxicity at highest dose tested: no significant toxicity
[3]; up to 2000 μg/kg weekly for up to 24 weeks
  maximum tolerated dose: not identified

B1: mIL-18: recombinant murine IL-18 (SEQ ID NO:2), used in the pre-clinical studies (protein)
chain: NFGRLHCTTAVIRNINDQVLFVDKRQPVFEDMTDIDQSASEPQTRLIIYMYKDSEVRGLAVTLSVKDSKMSTLSCKNKIISFEEMDPPENIDDIQSDLIFFQKRVPGHNKMEFESSLYEGHFLACQKEDDAFKLILKKKDENGDKSVMFTLTNLHQS
modifications: Murine
MOPC-315 plasmacytoma; 5 mg/Kg daily for approximately 30 days, advanced tumor
  tumor response: reproducible tumor regressions and cure
MOPC-315 plasmacytoma; SCIDs bearing advanced MOPC-315 tumors, similar schedule
  tumor response in SCID mice: failed to regress
MOPC-315 plasmacytoma; after cure with IL-18
  rechallenge with parental tumor: tumor rejection
NK cells [4]
  NK cytotoxicity: robust NK cytotoxicity
[2]
  therapeutic effect of monotherapy compared to control: did not show a therapeutic effect better than a control
[5]
  anti-tumor activity: no activity
EL-4 T-cell lymphoma; IL-18 monotherapy 1, 5 and 25 ug/dose S.C. days 3-16
  increase in lifespan: did not show any increase in lifespan
